According to patent US20210079107A1 (Novartis, published 2021):
Where “and” joins values, the source holds several entries; their conditions need not be identical. Equal entries are not always repeated.

Experiments:
recombinant human CD40 = biological target: T1, recombinant human CD40 (human, UniProt P25942 21-193); assay: SPR (Biacore T100), antibody captured on Protein A, CD40 as analyte, 25 °C, 1:1 model
T1 construct: Soluble analyte in SPR; also called CD40 antigen
From the text: A typical binding analysis cycle consisted of three steps: (i) capture of the antibody via ProteinA immobilized on the chip surface, (ii) binding of CD40 antigen to the captured anti-CD40 antibody, and (iii) regeneration of the ProteinA surface. To determine the kinetic rate constants of the antigen-antibody binding interactions, binding data were processed, double referenced with responses from blank injections. The binding curves were fitted locally using the 1:1 interaction model of the Biacore T100 Evaluation software to determine kinetic rate constants. The value for the equilibrium dissociation constant (KD) was calculated as the ratio of the rate constants kd/ka. All binding measurements were performed in two independent experiments.

[1] = biological target: T2, human FcγRIIIA 158F extracellular domain (human, UniProt P08637 17-199, site directed biotinylated with BirA (Avi tag)); assay: SPR (T100), biotinylated receptor on streptavidin chip, equilibrium binding, 1:1 model
T2 construct: range 17-199; not shown: 4-amino acid purification tag (4APP; Novartis)
From the text: (§1) Extracellular domains of human FcγRIIIA tagged with a 4-amino acid purification tag (4APP; Novartis) and an Avi biotinylation tag ([…]; Avidity) were synthesized by Geneart: human FcγRIIIA (CD16a) 158V (Uniprot: P08637, 17-199), human FcγRIIIA 158F (Uniprot: P08637, 17-199), expressed in HEK293 cells and purified with anti-4APP affinity chromatography. Receptors were site directed biotinylated with BirA (Avidity), bound to streptavidin sensor chips (General Electric), and the equilibrium-binding levels of the different Abs were analyzed by surface plasmon resonance (T100, General Electric) as described (Warncke et al. 2012). Equilibrium dissociation constants (KD) were calculated by a 1:1 model.

[2] = biological target: T3, rhesus monkey CD40 on CD20+ B cells (rhesus, UniProt F6SNI1 21-278); assay: flow cytometry, CD40 occupancy by CFZ533 (MFI EC50 on CD20+ cells), rhesus, n = 6
T3 construct: whole, on cells; also called NHP CD40

[3] = biological target: T4, human CD40 on cells (CD20+ B cells of whole blood/PBMCs, tonsil B cells, moDCs, RI-1 B cell line) (human, UniProt P25942 21-277); assay: cell-based or functional assay
[4] = biological target: T4, human CD40 on cells (CD20+ B cells of …); assay: flow cytometry, CD40 occupancy by CFZ533 (MFI EC50 on CD20+ cells), human, n = 4; human CD20+ cells, n = 4
[5] = biological target: T3, rhesus monkey CD40 on CD20+ B cells; assay: cell-based or functional assay
[6] = biological target: T4, human CD40 on cells (CD20+ B cells of …); assay: cell-based or functional assay; remark: listed apart in the source
[7] = biological target: T5, cynomolgus monkey CD40 on CD20+ B cells (cynomolgus, UniProt G7PG38 21-278); assay: cell-based or functional assay
[8] = biological target: T4, human CD40 on cells (CD20+ B cells of …); assay: flow cytometry, CD40 occupancy by CFZ533 (MFI EC50 on CD20+ cells), human, n = 4
[9] = biological target: T5, cynomolgus monkey CD40 on CD20+ B cells; assay: flow cytometry, CD40 occupancy by CFZ533 (MFI EC50 on CD20+ cells), cynomolgus, n = 4
[10] = biological target: T4, human CD40 on cells (CD20+ B cells of …); assay: cell-based or functional assay; remark: listed apart in the source
[11] = biological target: T6, human FcγRIIIA (CD16a) 158V extracellular domain (human, UniProt P08637 17-199, site directed biotinylated with BirA (Avi tag)); assay: SPR, biotinylated receptor on streptavidin chip, equilibrium binding
T6 construct: range 17-199; 158 is the usual mature numbering of the V/F allotype; also called Human FcγRIIIA 158V; not shown: 4-amino acid purification tag (4APP; Novartis)
From the text: as §1

[12] = biological target: T2, human FcγRIIIA 158F extracellular domain; assay: as above
From the text: as §1

T1 sequence (P25942 21-193 limits assumed): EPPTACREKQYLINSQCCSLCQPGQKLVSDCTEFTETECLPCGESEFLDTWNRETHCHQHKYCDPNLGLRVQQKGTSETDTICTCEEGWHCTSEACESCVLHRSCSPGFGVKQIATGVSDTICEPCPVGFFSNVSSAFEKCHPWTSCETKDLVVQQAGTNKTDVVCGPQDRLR
T4 sequence (P25942 21-277 limits assumed): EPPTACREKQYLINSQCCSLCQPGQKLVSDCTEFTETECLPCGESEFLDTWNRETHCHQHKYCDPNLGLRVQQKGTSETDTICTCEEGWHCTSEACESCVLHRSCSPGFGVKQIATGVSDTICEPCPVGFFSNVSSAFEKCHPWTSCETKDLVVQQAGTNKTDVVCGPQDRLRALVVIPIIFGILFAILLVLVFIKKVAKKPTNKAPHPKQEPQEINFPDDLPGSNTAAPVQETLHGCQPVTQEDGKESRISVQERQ
T2 sequence (P08637 other isoform, or with tags, fused parts or gaps): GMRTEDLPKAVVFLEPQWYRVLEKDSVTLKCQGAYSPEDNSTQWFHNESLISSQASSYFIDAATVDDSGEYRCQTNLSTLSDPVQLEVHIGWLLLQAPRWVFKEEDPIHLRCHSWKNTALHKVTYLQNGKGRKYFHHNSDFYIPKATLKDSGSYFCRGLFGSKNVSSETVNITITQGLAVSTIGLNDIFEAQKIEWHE
T6 sequence (P08637 other isoform, or with tags, fused parts or gaps): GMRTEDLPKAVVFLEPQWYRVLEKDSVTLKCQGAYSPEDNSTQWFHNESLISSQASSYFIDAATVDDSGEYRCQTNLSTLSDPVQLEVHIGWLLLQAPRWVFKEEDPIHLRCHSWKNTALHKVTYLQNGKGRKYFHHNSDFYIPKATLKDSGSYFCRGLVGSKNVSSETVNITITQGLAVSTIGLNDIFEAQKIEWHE

Binder | Kd (recombinant human CD40) [nM] | koff (recombinant human CD40) [s⁻¹] | kon (recombinant human CD40) [M⁻¹ s⁻¹] | Ka [1] [M⁻¹] | EC50 [2] [µg/mL] | IC50 (read off the curve): rCD154-induced CD69 expression on CD20pos B cells, human whole blood [3] [µg/mL] | EC50 [4] [nM] | Inhibition of rCD154-induced proliferation (IC50 PBMCs) [5] [µg/mL] | Inhibition of rCD154-induced proliferation (IC50 PBMCs) [6] [µg/mL] | Inhibition of rCD154-induced proliferation (IC50 PBMCs) [7] [µg/mL] | EC50 [8] [µg/mL] | EC50 [9] [µg/mL] | IC50, rCD154-induced TNF production by primary monocyte-derived dendritic cells (moDCs) [10] | IC50, rCD154-induced proliferation of human whole blood cultures [10] | IC50, rCD154-induced proliferation of purified tonsillar B cells [10] | binding result [11] | binding result [12]
HCD122 (wild-type IgG1 version of CFZ533) (antibody, it calls it the parental antibody and the wild-type IgG1 version of CFZ533 (N297A IgG1); It is built here as the CFZ533 chains with Asn in place of the Ala of N297A; 297 is a constant-region number; also called parental antibody) heavy: not shown light: DIVMTQSPLSLTVTPGEPASISCRSSQSLLYSNGYNYLDWYLQKPGQSPQVLISLGSNRASGVPDRFSGSGSGTDFTLKISRVEAEDVGVYYCMQARQTPFTFGPGTKVDIRRTVAAPSVFIFPPSDEQLKSGTASVVCLLNNFYPREAKVQWKVDNALQSGNSQESVTEQDSKDSTYSLSSTLTLSKADYEKHKVYACEVTHQGLSSPVTKSFNRGEC | 0.467 | 0.000126 | 284000 | 699000 | – | – | – | – | – | – | – | – | – | – | – | – | –
CFZ533 (antibody, human IgG1, kappa, N297A, In the receptor occupancy and internalisation assays it was labelled with AlexaFluor 488; also called mAb1; iscalimab) heavy: not shown light: DIVMTQSPLSLTVTPGEPASISCRSSQSLLYSNGYNYLDWYLQKPGQSPQVLISLGSNRASGVPDRFSGSGSGTDFTLKISRVEAEDVGVYYCMQARQTPFTFGPGTKVDIRRTVAAPSVFIFPPSDEQLKSGTASVVCLLNNFYPREAKVQWKVDNALQSGNSQESVTEQDSKDSTYSLSSTLTLSKADYEKHKVYACEVTHQGLSSPVTKSFNRGEC | 0.305 | 9.3e-05 | 313000 | – | 0.22 | ~0.1 | 1.49 | 0.026 | 0.017 | 0.01 | 0.22 | 0.2 | 0.04 µg/ml and 0.27 nM | 0.024 µg/ml and 0.16 nM | 0.47 nM and 0.071 µg/ml | no binding | no binding
